The assay addresses AP-1 clathrin adaptor complex (UniProt O43747). Put plainly: GST pull-down, Western blot with anti-γ-adaptin, densitometry. The settings on record: HeLa cell lysates; GST-fusions immobilized on GSH-sepharose beads; parent: est. 100; read off a plot.
Chain of UniProt O43747 (O43747 whole entry, looked up, the tested form may be a part, one chain of several): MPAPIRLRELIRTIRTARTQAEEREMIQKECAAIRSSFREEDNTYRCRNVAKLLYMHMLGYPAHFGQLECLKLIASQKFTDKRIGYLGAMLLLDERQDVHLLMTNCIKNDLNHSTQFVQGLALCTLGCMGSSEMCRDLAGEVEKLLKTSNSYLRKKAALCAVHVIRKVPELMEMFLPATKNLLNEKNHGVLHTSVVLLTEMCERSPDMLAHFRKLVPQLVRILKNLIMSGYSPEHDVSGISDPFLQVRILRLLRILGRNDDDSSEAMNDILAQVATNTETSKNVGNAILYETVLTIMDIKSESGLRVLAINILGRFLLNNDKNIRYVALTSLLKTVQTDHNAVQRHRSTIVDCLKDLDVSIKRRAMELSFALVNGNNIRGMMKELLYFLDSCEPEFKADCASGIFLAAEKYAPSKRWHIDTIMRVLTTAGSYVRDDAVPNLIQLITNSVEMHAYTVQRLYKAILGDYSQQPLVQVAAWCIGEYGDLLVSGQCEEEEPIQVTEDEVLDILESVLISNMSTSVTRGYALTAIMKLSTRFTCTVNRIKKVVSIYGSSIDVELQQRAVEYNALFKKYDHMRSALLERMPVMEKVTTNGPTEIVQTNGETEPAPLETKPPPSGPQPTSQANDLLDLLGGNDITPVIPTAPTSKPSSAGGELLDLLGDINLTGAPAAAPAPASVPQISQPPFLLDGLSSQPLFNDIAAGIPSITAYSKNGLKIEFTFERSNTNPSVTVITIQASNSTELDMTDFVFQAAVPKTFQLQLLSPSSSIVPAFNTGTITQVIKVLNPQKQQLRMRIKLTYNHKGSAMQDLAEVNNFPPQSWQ

In the case of “GST-Nef, wild-type HIV-1 NL4.3 Nef fused to glutathione-S-transferase P129A; G130A”, the percent of parent is 74 % of control.

In the case of “GST-Nef, wild-type HIV-1 NL4.3 Nef fused to glutathione-S-transferase L164A; L165A”, the percent of parent is 17 % of control. As for “GST-Nef, wild-type HIV-1 NL4.3 Nef fused to glutathione-S-transferase P131A; G132A”, the figure is 75 % of control.

(Values after paper PMC4689412.)
